Laboratory results taken from patent publication US20090074762A1.

Molecular target: T1, TweakR on cells (TweakR-expressing cells, TweakR transfectant cell line, A375 melanoma cells, tumor tissue) (human) (UniProt Q9NP84)
T1 sequence: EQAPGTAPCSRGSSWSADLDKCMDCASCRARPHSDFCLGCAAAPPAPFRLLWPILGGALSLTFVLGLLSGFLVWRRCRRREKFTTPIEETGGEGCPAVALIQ
Test: cell-based or functional assay

B1: anti-TweakR antibody ITEM4 (antibody, from another filing, V domains shown)
VH: QVQLQQSGPELVKPGASVKMSCKASGYTFTDFIIAWVKQRTGQGLEWIGEIYPGTGRTYYSEKFRGKATLTADKSSNTAYMQLSSLTSVDSAVYFCARRTIYYDYDGDYWGQGTTLTVSS
VL: DIVMTQAAFSNPVTLGTSASISCRSSKSLLHSNGITYLYWYLQKPGQSPQLLIYQMSNLASGVPDRFSSSGSGTDFTLRISRVEAEDVGVYYCAHNLELPWTFGGGTKLELK
**Q.** Which agonist activity (IL-8 release assay) does the source give for B1 here?
**A.** Its agonist activity (IL-8 release assay) is 12%.
